The target of experiment [1] is CD33 on human AML cells (Kasumi-1, HL-60, MOLM14) (human (endogenous in Kasumi-1, HL-60, MOLM14)) (UniProt P20138). As to the kind of experiment: flow cytometry on cells; 50 ug CD117 or CD33 Db-FM injected i.v. into NSG mice engrafted with MOLM14-CD117^highGFP^+Luc^+ cells; femora collected after 1 and 6 h; MFI (APC anti-FITC) interpolated on an ex vivo titration of Db-FM on cells of a control mouse. (In flow cytometry, cells or beads pass a laser one at a time.)

For experiment [2] the target is unchanged. As to the kind of experiment: flow cytometry on cells; MOLM14 GFP^-CD117^midCD33^+ cells stained with 10 nM of either Db-FM or both (10 nM each); fluorescence (MFI).

Chain of CD33 on human AML cells (Kasumi-1, HL-60, MOLM14) (human (endogenous in Kasumi-1, HL-60, MOLM14)) (P20138 18-364): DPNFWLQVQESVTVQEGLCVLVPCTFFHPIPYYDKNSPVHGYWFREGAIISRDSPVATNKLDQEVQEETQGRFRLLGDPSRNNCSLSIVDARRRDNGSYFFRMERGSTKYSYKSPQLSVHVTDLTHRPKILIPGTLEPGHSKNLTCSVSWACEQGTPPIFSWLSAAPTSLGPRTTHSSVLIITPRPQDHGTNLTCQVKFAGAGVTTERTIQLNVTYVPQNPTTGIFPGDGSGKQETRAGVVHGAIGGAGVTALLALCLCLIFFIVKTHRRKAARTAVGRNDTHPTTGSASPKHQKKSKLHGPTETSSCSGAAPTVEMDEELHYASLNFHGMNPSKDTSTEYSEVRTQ

In experiment [1], “CD33 Db-FM (fluorescein-maleimide-labelled anti-CD33 diabody, clone SGN-33)” returned an interpolated on-tumor Db-FM concentration 1 h after injection of 0.99 nM and an interpolated on-tumor Db-FM concentration 6 h after injection of 0.22 nM. In experiment [2], this substance yielded an MFI of 942.

The values above are taken from publication PMC11588662.
